Values joined by “and” are separate entries in the source; they are usually repeats but may differ in a detail not shown here. Equal values may be shown once.
How the values were obtained:
[1] = molecular target: T1, human B-lymphocyte antigen CD19 (human, UniProt P15391 20-556); assay: cell-based or functional assay
T1 sequence (looked up): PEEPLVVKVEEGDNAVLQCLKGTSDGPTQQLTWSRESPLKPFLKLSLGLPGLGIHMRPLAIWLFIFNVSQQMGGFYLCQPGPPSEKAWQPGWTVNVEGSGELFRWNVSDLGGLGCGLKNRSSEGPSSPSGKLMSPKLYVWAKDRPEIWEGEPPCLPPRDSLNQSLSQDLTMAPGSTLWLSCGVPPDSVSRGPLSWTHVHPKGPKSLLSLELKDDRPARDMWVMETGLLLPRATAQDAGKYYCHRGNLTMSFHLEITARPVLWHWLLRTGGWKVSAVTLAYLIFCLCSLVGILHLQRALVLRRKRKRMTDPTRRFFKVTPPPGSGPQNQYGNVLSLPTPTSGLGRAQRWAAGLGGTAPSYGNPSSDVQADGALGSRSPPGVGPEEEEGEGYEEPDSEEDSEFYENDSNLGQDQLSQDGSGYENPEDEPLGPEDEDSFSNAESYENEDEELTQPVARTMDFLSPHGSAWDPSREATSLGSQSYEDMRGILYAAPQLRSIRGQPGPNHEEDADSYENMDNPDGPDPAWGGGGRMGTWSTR

mouse CD19 = molecular target: T2, mouse CD19 (mouse, UniProt P25918 19-547); assay: FACS on B-cells of the respective species
T2 construct: whole, on cells
T2 sequence (looked up): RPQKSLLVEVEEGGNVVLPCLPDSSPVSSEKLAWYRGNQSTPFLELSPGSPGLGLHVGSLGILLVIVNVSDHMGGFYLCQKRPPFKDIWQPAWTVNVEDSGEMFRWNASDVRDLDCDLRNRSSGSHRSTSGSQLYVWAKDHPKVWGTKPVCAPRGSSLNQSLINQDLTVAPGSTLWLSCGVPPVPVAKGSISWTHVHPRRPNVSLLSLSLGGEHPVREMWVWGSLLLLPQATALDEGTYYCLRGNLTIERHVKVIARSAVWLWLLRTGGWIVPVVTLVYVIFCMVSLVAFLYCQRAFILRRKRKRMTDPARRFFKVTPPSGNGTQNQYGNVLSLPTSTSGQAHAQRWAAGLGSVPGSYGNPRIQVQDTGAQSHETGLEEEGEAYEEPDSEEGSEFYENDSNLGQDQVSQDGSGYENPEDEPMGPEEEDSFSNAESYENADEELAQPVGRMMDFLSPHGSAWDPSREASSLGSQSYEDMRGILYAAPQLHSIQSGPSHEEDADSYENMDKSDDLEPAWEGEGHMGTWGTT

cynomolgus CD19 = molecular target: T3, cynomolgus CD19 (cynomolgus, UniProt A0A2K5W8L9 20-557); assay: FACS on B-cells of the respective species
T3 construct: whole, on cells
T3 sequence: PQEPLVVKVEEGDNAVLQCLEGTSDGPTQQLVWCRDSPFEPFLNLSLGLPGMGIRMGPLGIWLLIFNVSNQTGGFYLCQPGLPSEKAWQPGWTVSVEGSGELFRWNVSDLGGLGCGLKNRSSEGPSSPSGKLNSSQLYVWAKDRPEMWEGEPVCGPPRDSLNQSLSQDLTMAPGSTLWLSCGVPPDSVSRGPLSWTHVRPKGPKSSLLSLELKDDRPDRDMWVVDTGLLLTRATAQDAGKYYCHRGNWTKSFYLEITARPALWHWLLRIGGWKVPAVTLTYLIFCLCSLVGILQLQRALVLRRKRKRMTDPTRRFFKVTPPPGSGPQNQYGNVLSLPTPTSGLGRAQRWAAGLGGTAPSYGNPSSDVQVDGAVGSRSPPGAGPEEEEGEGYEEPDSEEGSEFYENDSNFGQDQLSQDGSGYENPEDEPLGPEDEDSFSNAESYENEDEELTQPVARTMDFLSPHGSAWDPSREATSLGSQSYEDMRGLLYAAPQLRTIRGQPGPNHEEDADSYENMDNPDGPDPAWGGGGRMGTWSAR

rabbit CD19 = molecular target: T4, rabbit CD19 (rabbit, UniProt G1TWR4 20-543); assay: FACS on B-cells of the respective species
T4 construct: whole, on cells
T4 sequence: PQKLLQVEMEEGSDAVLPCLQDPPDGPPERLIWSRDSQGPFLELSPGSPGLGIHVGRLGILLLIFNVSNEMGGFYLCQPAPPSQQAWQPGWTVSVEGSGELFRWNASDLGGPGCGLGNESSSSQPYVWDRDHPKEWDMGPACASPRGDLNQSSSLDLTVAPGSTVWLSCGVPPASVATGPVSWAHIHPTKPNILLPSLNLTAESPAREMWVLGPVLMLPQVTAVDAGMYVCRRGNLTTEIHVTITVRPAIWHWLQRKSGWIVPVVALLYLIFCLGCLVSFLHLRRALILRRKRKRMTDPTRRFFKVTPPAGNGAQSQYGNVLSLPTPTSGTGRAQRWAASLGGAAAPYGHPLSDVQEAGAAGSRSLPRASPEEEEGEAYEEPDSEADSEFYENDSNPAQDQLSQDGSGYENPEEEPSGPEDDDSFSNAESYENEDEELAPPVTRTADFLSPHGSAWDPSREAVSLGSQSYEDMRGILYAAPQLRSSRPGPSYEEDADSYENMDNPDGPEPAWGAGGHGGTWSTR

[2] = molecular target: T1, human B-lymphocyte antigen CD19; assay: FACS binding on Daudi cells, goat anti-mouse RPE detection
[3] = molecular target: T1, human B-lymphocyte antigen CD19; assay: cell ELISA on human CD19-transfected NIH3T3 cells against untransfected NIH3T3 cells

EC50 of inhibition of Ca2+ influx in anti-IgM activated Ramos cells [1]: 0.37 nM and 56 ng/ml
binding result (mouse CD19): no binding
binding result (cynomolgus CD19): no binding
binding result (rabbit CD19): no binding
EC50 [2]: 1.45 nM
ratio OD NIH3T3 CD 19 to OD NIH3T3 untransfected [3]: 11.4
B1: Mab381 (antibody, V domains shown)
VH: QVQLQQSGAELVRPGSSMKISCKASGYAFSSYWMNWVKQRPGQGLEWIGQIYPGDGDINYSGKFKGKVTLTADKSSSTAYMQLSSLTSEDSAVYFCARTITTVVGYVMDYWGQGTSVTVSS
VL: DIVMTQSHKFMSTSVGDRVSITCKASQDVGTVVAWYQQKPGQSPKLLIYWASTRHTGVPDRFTGSGSGTDFTLTISNVQSEDLADYFCQQYSSYPYTFGGGTKLEIKR
notes: Murine monoclonal antibody purified from hybridoma 8C3
